From paper PMC6056538

Legend:
[1] = target: T1 with SpyTag, flanked by six residue glycine-serine linkers, inserted on the lumenal side (Haliangium ochraceum | not stated); experiment: fluorescence intensity of purified shells; number of cfp cargo proteins per shell calculated from fluorescence intensity values of shells loaded in vivo and purified by CAP and anion exchange
[2] = target: T1 with SpyCatcher, flanked by six residue glycine-serine linkers, inserted on the lumenal side (Haliangium ochraceum | not stated); experiment: as above

Substance | cfp cargo copies per shell (copies per shell) [1] | cfp cargo copies per shell (copies per shell) [2]
SpyCatcher-mTurquoise2-6xHis (SpyCatcher-fused cyan fluorescent protein cargo) | 58 | 
SpyTag-mTurquoise2-6xHis (SpyTagged cyan fluorescent protein cargo) |  | 73
